The text below walks through data of patent publication US20110110959A1 (BIOSCEPTRE AUST, published 2011).

Experiment [1] concerns the target HLA (human). The experiment in a line: FACS, human lymphocytes.
Experiment [2] addresses HLA (human). Kind of experiment: FACS, MCF-7 breast tumour cell line. In general terms: In flow cytometry, cells or beads pass a laser one at a time.
In experiment [3] the target is U140. Kind of experiment: ELISA, coated antigen, supernatant, duplicate 1.
Experiment [4] concerns the target U80. The experiment in a line: ELISA, coated antigen, supernatant, duplicate 1.
Experiment [5] has as its target U140. Kind of experiment: ELISA, coated antigen, supernatant, duplicate 2.
In experiment [6] the target is U80. Kind of experiment: ELISA, coated antigen, supernatant, duplicate 2. In general terms: ELISA stands for enzyme-linked immunosorbent assay.
Experiment [7] addresses T1, composite peptide GHNYTTRNILPGAGAKYYKENNVEK (BSA carrier protein attached for coating of ELISA plates).
T1 construct: also called EP200/300; 200/300-peptide
T1 peptide: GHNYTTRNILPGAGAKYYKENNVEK
The experiment in a line: ELISA, coated antigen, supernatant, duplicate 1.

For experiment [8], the target named is T2, 200 (a peptide having the sequence of the E200 region).
T2 construct: also called E200 peptide
T2 peptide: GHNYTTRNILPGLNITC
Kind of experiment: ELISA, coated antigen, supernatant, duplicate 1.

Experiment [9] deals with T3, 300 (a peptide having the sequence of the E300 region).
T3 construct: also called E300 peptide
T3 peptide: KYYKENNVEKRTLIKVF
The experiment in a line: ELISA, coated antigen, supernatant, duplicate 1.

In experiment [10] the target is T1, composite peptide …. The experiment in a line: ELISA, coated antigen, supernatant, duplicate 2.
In experiment [11] the target is T2, 200 (a peptide having the sequence of …). Kind of experiment: ELISA, coated antigen, supernatant, duplicate 2.
The target of experiment [12] is T3, 300 (a peptide having the sequence of …). The experiment in a line: ELISA, coated antigen, supernatant, duplicate 2.

In the experiment with HLA (human) [1], HLA (W6/32) Positive Control (antibody) displayed a Mean Fluorescence Intensity (MFI) of 3900 MFI and a Percent Cells Positive of 100%. In the experiment with HLA (human) [2], this molecule had a Mean Fluorescence Intensity (MFI) of 1670 MFI and a Percent Cells Positive of 87%.

B1: 2A11 (antibody, V domains shown)
VH: QVQLQESGGGSVQAGGSLRLSCTASGFTLDDSDLGWYRQAPGNECELVSIIRRDGSPYHTYYPDSVKGRFTISQDNAKNTLYLQMNSLKPEDTAVYYCAADPSRYYSDYGAPGCGFNYWGQGTQVTVSS
As to B1, the ELISA absorbance (405 nm, reference 490 nm) in the experiment with U140 [3] was found to be 0.17 OD; in the experiment with U80 [4] it was 0.181 OD; in the experiment with U140 [5], 0.508 OD; with U80 [6], 0.154 OD; in experiment [7] it was 3.62 OD; in [8], 0.138 OD. Also, the “ELISA absorbance (405 nm, reference 490 nm)” value came out at 0.144 OD in [9], 3.6 OD in [10], 0.194 OD in [11] and 0.186 OD in experiment [12].
